We go through 8 molecules from patent US20150004155A1 (AIMM THERAPEUTICS B V, published 2015).

Experiment [1] addresses T1, RSV G protein of RSV A2 (native, on RSV A2 infected HEp2 cells / virus) (Respiratory Syncytial Virus subtype A, …, UniProt P03423 1-298).
T1 sequence: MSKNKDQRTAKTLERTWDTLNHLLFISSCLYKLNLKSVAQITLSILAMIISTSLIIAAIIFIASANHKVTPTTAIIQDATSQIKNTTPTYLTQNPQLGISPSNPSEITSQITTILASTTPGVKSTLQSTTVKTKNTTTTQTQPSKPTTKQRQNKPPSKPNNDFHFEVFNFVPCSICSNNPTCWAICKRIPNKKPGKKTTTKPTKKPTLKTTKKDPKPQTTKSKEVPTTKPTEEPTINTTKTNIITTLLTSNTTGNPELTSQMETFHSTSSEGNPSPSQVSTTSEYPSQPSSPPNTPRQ
The experiment is described as follows: FACS, RSV infected cells, anti-huIgG-PE. Background: A flow cytometer gives signals particle by particle.

Experiment [2] deals with T2, purified recombinant RSV-Ga protein (Sino Biologics) (Respiratory Syncytial Virus subtype A, …, UniProt P03423 64-298).
T2 sequence: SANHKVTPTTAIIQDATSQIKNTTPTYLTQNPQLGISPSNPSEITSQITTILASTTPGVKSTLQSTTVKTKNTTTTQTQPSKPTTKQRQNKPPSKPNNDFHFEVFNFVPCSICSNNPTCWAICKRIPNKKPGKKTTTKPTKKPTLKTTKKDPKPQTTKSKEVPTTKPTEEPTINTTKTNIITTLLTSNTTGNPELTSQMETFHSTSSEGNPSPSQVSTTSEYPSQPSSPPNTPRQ
The experiment is described as follows: SPR (IBIS MX96), IgG captured on anti-human IgG, RSV Ga injected.

Experiment [3] concerns the target T3, purified recombinant RSV-Gb protein (Sino Biologics) (Respiratory Syncytial Virus subtype B, …, UniProt O36633 67-299).
T3 sequence: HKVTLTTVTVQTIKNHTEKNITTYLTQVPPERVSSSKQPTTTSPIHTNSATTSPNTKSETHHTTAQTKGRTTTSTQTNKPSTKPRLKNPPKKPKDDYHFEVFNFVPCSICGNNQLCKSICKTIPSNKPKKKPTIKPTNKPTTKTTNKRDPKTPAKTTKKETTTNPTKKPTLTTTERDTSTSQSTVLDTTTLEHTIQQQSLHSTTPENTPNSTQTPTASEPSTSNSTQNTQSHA
In words: SPR (IBIS MX96), IgG captured on anti-human IgG, RSV Gb injected.

Experiment [4] has as its target T4, RSV G protein in denatured and boiled supernatant of RSV A2 infected HEp2 cells (western blot) (Respiratory Syncytial Virus subtype A, …, UniProt P03423 66-298).
T4 sequence: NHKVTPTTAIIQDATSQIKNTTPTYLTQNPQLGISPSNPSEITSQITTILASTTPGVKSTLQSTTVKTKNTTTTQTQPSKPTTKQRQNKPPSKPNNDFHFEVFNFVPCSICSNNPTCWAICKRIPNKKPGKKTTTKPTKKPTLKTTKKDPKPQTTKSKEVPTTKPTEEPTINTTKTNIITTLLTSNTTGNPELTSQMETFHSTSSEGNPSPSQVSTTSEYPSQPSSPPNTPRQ
The experiment is described as follows: western blot, denatured RSV A2 supernatant. On the technique in general: A western blot detects proteins with antibodies after separation by electrophoresis.

The target in experiment [5] is T3, purified recombinant RSV-Gb protein …. The experiment is described as follows: SPR (IBIS MX96), IgG captured on anti-human IgG.

For orientation: Kd means the free concentration of one partner at which half of the binding sites on the other are occupied at equilibrium, for simple one-to-one binding. What is called koff is a measure of how fast the partners let go of each other. The term kon denotes a measure of how fast the partners come together.

B1: AT34 (antibody, V domains shown)
VH: QVQLMESGGGVVQPGKSLRLSCAASGFTFSHYGMHWVRQAPGKGLEWVAVISYDGDKKYYADSVKGRFTISRDNSKNTLHLHMNSLRHEDTAVYFCASQGAKGGHELSFYCALDVWGQGTTVAVSS
VL: DIQMTQSPSTLSASVGDRVTITCRASQGIGSWLAWYQQKPGKAPKLLIYNASGLESGVPSGFSGSGSGTEFTLTISSLQPDDSATYYCQQYNSHTWTFGQGTKVEFKR
With B1, the binding result in experiment [1] is recorded as “binds”.

B2: AT32 (antibody, V domains shown)
VH: QVQLVQSGAEMKKPGASVKVSCQVAGYTLTELSIHWVRQTPGNGLEWMGGFEPEDGEYIYPQKSQGRVTMTEDTSTGTAYMELRSLRSDDTAVYYCAAEARYCDNSRCSPNFDHWGQGTLVAVSS
VL: DIVMTQSPDSLAVSLGERATFSCKSSQSVLYDSNNKNYLAWYQQRPGQPPKLLIYWASTRESGVPDRFSGSGSGTDFTLTISSLQPEDVAVYYCQQYYDPLITFGQGTRLEIKR
Consider B2, for which, in experiment [2], the Kd turned out to be 0.6 nM, the off-rate (koff) amounted to 0.00043 s⁻¹ and the kon stood at 750000 M⁻¹ s⁻¹.

B3: AT49 (antibody, V domains shown)
VH: QVLLVQSGAEIKKPGSSVKISCKASGGTFSSLALNWVRQAPGQGLQWMGGIIPLFGTQNYAQKFQGRVTITADESTSTAYMELSGLRPEDTAVYYCALFLWFGDQTSDDGFDVWGQGTVVTVSS
VL: DIVMTQSPLSLTVTPGEPASISCRSSQSLLHGNGYKYLHWYLQKPGQSPQLLIYLGSNRASGVPARFSGSGSDTDFTLKISTVETEDVGVYYCMQALQSPTFGQGTKVEIKR
For B3, in experiment [2], the Kd turned out to be 0.1 nM, the dissociation rate constant (koff) came to 3e-05 s⁻¹ and the kon worked out at 220000 M⁻¹ s⁻¹. In experiment [3], the dissociation constant (Kd) was determined as 0.5 nM, the off-rate constant (koff) was found to be 5e-05 s⁻¹ and the kon worked out at 120000 M⁻¹ s⁻¹.

B4: AT44 (antibody, V domains shown)
VH: QVQLQASGPGLVKPSETLSLTCNVSGYSVSSGHYWAWVRQSPGKGLEWIGGIHHSGSTYTNPPLKSRVSISIDTSKNQFSLRLTSVTAADTAVYFCARDLYDLSTGPFWFDPWGQGTLVTVSS
VL: EIVMTQSPATLSVSPGERVTLSCRASQSVSTKVVWYQQKFGQAPRLLIYGASTRATGIPVRFSGSGSGTEFTLTISSLQSEDLAVYFCQQYNKWPMYTFGQGTKLEIKR
For B4, in experiment [2], the equilibrium dissociation constant (Kd) was 0.1 nM, the koff was found to be 3e-05 s⁻¹ and the kon worked out at 350000 M⁻¹ s⁻¹. For the same molecule, in experiment [3], the equilibrium dissociation constant (Kd) turned out to be 0.1 nM, the off-rate (koff) is 4e-05 s⁻¹ and the on-rate constant (kon) is 340000 M⁻¹ s⁻¹.

B5: AT36 (antibody, V domains shown)
VH: QVQVVQSGAEVKKPGASVKVSCKTSGYNFIDHSVSWVRQAPGQGLEWMGWISPYNHRTVYAEKFQGRVTMTTDTSTRTVSMELRRLTSDDTAVYFCARDRVQQGEGNFFDHWGQGTPVTVTS
VL: DIVMTQSPDSLAVSLGERATINCKSSQSLLHSSNNKIYLAWYQQKPGQPPKLLLYWASTRESGVPDRFTGSGSGTDFTLTINSLQAEDVAVYYCQQYYTTHPTFGQGTRLEIKR
With B5, the binding result in experiment [1] is listed as “binds”.

B6: AT42 (antibody, V domains shown)
VH: QVQLQESGPGLVQPSETLSLTCTVSGDSITSNVYYWGWIRQPPGKGLEWIGSIFHSGITHYTPSLNSRVTISVDTSKNQFSLRLSSATAADTAVYYCARHWAGLYFDSWGQGALVAVSS
VL: EIVLTQSPGTLSLSPGERATLSCRASQTVSSSHLAWYQQKPGQAPRLLIHGSSSRATGIPERFSGSGSGPDFTLTISRLKPEDFAVYYCQYYGDSPGSFGEGTKVEIKR
On to B6, for which, in experiment [2], the Kd came out at 1.3 nM, the off-rate constant (koff) is 0.00076 s⁻¹ and the on-rate (kon) worked out at 640000 M⁻¹ s⁻¹. In addition, in experiment [3], the dissociation constant Kd turned out to be 0.3 nM, the koff stood at 0.0001 s⁻¹ and the kon came to 400000 M⁻¹ s⁻¹. The binding result in experiment [4] is “no binding”.

B7: AT40 (antibody, V domains shown)
VH: QVQLVESGGGVVQPGMSHRLSCAASTLIFDRHALHWVRQAPGAGLEWVAILSYDGTTDYYADSVKGRFTVSRDTSKNTVFLQMNGLRPQDTAVYYCARGRALDDFADYGGYYFDYWGQGILVTVSS
VL: DIQMTQSPSSVSASVGDKVTITCRASQGISTWLAWYQQKPGKAPALLIYSASRLQSGVPSRFSGSGSGTDFTLTISSLQPEDYATYYCQQANTFPFTFGPGTKVDIKR
As to B7, in experiment [2], the dissociation constant Kd amounted to 0.2 nM, the dissociation rate constant (koff) worked out at 6e-05 s⁻¹ and the kon amounted to 350000 M⁻¹ s⁻¹. Besides, in experiment [3], the dissociation constant (Kd) was 0.1 nM, the off-rate constant (koff) came out at 3e-05 s⁻¹ and the on-rate constant (kon) worked out at 340000 M⁻¹ s⁻¹.

B8: AT46 (antibody, V domains shown)
VH: EVQLVESGGGLVQPGGSLRLSCAASGFTFSRYVMSWVRQAPGRGLEWVSSITGSGATTYYADSVKGRFTISRDNSKNTVYLQMNRLRAEDTAIYYCANCGRAGQIFDDWGQGTLVTVSS
VL: QPVLTQSPSASASLGASVKLTCTLSSGHRNYAIAWHQQRPEKGPRYLMKIYTNGSHYPGDGTPDRFSGSSSGAERYLTISSLQSEDEADYYCQTWGAGIWVFGGGTKLTVLG
Consider B8, for which the binding result in experiment [5] was “no binding”.
